Data on six molecules can be found in article PMC12455949 (Journal of Virology, 2025).

Among the targets are A/Victoria/361/2011 HA (Influenza A virus A/Victoria/361/2011 …, UniProt A0A097PF39, strain); A/Texas/50/2012 HA (Influenza A virus A/Texas/50/2012 (H3N2), UniProt R4L1D1, strain); A/Panama/2007/1999 HA (Influenza A virus A/Panama/2007/1999 …, UniProt Q1K9M3, strain); A/Perth/16/2009 HA (Influenza A virus A/Perth/16/2009 (H3N2), UniProt C6KNH7, strain).
Assay in all cases: BLI
Details in all cases: both partners purified

For assay [1], the target named is A/Perth/16/2009 HA, recombinant soluble (rHA) (Influenza A virus A/Perth/16/2009 (H3N2), UniProt C6KNH7, strain).
Assay [2] addresses A/Port Chalmers/1/1973 HA, recombinant soluble (rHA) (Influenza A virus A/Port …, UniProt Q1PUD9, strain).
Assay [3] deals with A/Texas/50/2012 HA, recombinant soluble (rHA) (Influenza A virus A/Texas/50/2012 (H3N2), UniProt R4L1D1, strain).
In assay [4] the target is A/Panama/2007/1999 HA, recombinant soluble (rHA) (Influenza A virus A/Panama/2007/1999 …, UniProt Q1K9M3, strain).
For assay [5], the target named is COBRA HA NG2, recombinant soluble (rHA) (Influenza A virus H3, designed COBRA NG2).
The target in assay [6] is COBRA HA TJ2, recombinant soluble (rHA) (Influenza A virus H3, designed COBRA TJ2).
In assay [7] the target is A/Switzerland/9715293/2013 HA, recombinant soluble (rHA) (Influenza A virus …, strain).
For assay [8], the target named is COBRA HA J4, recombinant soluble (rHA) (Influenza A virus H3, designed COBRA J4).
Assay [9] deals with A/Switzerland/9715293/2013 HA (Influenza A virus …, strain).
Assay [10] addresses A/Port Chalmers/1/1973 HA (Influenza A virus A/Port …, UniProt Q1PUD9, strain).
The target in assay [11] is A/Victoria/361/2011 HA, recombinant soluble (rHA) (Influenza A virus A/Victoria/361/2011 …, UniProt A0A097PF39, strain).

“And” between values parts separate entries of the source, which are not always exact repeats. Equal values may be shown once.

B1: mAb #1664 (antibody, V domains shown)
VH: EVQVMQSGAEARMTGATVKISCKASGYTFSDYFLHWVKQAPGKGLEWMGLVDVDNGEVRYAEKFQGRVTITADTSTETAYLEMTTVTSGDTAVYYCASTTPRGGNPSVYNYFFVDVWGKGTTVTVSS
VL: QPVLTQSSSASASLGSSVKLTCTLSSGHDNYIIAWHQQQPGKAPRYLMQVGAGGTYNKGSGVPHRFSGSSSGADRYLTISNLQSDDEADYYCETWDSKTVFGGGTTLTVL
notes: copies: 2 + 2
As to B1, the Kd – broadly, a measure of binding affinity in units of concentration – in [1] is 0.42 nM and 0.2 nM; in [3], 0.73 nM and 1.13 nM; in [4] it was 18.2 nM and 14.7 nM; in assay [5] it was 135 nM and 143 nM; in [6] it was 0.47 nM and 0.43 nM; in assay [7] it was 286 nM and 222 nM. Also, the Kd in assay [8] was 12.8 nM and 17.7 nM. The binding result in [2] is “no binding (tested: 1350 nM)”.

B2: mAb #1664 (antibody, V domains shown)
VH: B1 VH
VL: B1 VL
As to B2, the Kd in the assay with A/Victoria/361/2011 HA worked out at 0.84 nM; in [9] it was 254 nM; with A/Texas/50/2012 HA it was 0.93 nM; with A/Panama/2007/1999 HA it was 16.4 nM; with A/Perth/16/2009 HA, 0.31 nM. The dissociation rate constant (koff) (as a rule, the first-order rate constant of dissociation) with A/Victoria/361/2011 HA stood at 8.98e-05 s⁻¹; in assay [9], 0.00379 s⁻¹; in the assay with A/Texas/50/2012 HA, 9.08e-05 s⁻¹; with A/Panama/2007/1999 HA, 0.00179 s⁻¹; with A/Perth/16/2009 HA, 3.36e-05 s⁻¹. The kon (as a rule, a measure of how fast the partners come together) in the assay with A/Victoria/361/2011 HA worked out at 119000 M⁻¹ s⁻¹; in assay [9], 15000 M⁻¹ s⁻¹; in the assay with A/Texas/50/2012 HA, 98300 M⁻¹ s⁻¹; with A/Panama/2007/1999 HA, 109000 M⁻¹ s⁻¹; in the assay with A/Perth/16/2009 HA, 108000 M⁻¹ s⁻¹. Besides, the binding result in assay [10] is “no binding (tested: 100 nM rHA (exploratory assays))”.

B3: mAb TJ5-1 (antibody, V domains shown)
VH: EVQLVQSGAEVKKPGASVKVSCKASGYTFTGFYLHWVRQAPGQGLEWMGWINPHSGDTDFAQKFQGKVTMTRDTSSNTVYMDVNRLTSDDTAVYYCVKNDIVLGMGVWGQGTTVIVSS
VL: QSVLTQPPSVSGAPGQRVTISCTGSSSNIGAGYNVYWFQQLPPTAPKLLNYGDNNRPSGVPDRFSASKSGTSASLAITGLQAEDEAEYYCQSYDSSLNAYVFGTGTKVTVL
As to B3, the Kd in assay [11] was 0.62 nM and 1.1 nM; in assay [1] it was 0.13 nM and 0.14 nM; in [2], 7.13 nM and 13.1 nM; in [3], 0.21 nM and 0.39 nM; in assay [4] it was 0.15 nM and 0.17 nM; in assay [6], 3.28 nM and 8.01 nM. The Kd was 0.59 nM and 0.67 nM in assay [7]; 0.3 nM and 0.16 nM in assay [8].

B4: mAb TJ5-1 (antibody, V domains shown)
VH: B3 VH
VL: B3 VL
B4: the equilibrium dissociation constant (Kd) with A/Victoria/361/2011 HA is 0.86 nM; in assay [9] it was 0.63 nM; in the assay with A/Texas/50/2012 HA, 0.3 nM; with A/Panama/2007/1999 HA, 0.16 nM; with A/Perth/16/2009 HA it was 0.14 nM. Also, the koff with A/Victoria/361/2011 HA stood at 0.000195 s⁻¹; in assay [9], 0.00019 s⁻¹; with A/Texas/50/2012 HA, 8.93e-05 s⁻¹; with A/Panama/2007/1999 HA, 4.97e-05 s⁻¹; with A/Perth/16/2009 HA, 3.66e-05 s⁻¹. The on-rate constant (kon) in the assay with A/Victoria/361/2011 HA came out at 228000 M⁻¹ s⁻¹; in assay [9], 303000 M⁻¹ s⁻¹; in the assay with A/Texas/50/2012 HA, 307000 M⁻¹ s⁻¹; with A/Panama/2007/1999 HA it was 315000 M⁻¹ s⁻¹; with A/Perth/16/2009 HA, 266000 M⁻¹ s⁻¹.

B5: mAb TJ5-13 (antibody, V domains shown)
V domain 1: QVQLVQSGAEVKKPGSSVKVSCEASGDTFTTYSGINWVRQAPGQGLEWMGGVLPNFGSPNYAQRFQGRITITVDRSTSLVHMELTNLRSDDTAVYYCTETGAYNSVGYFPYFQFRGQGTLVSVSS
V domain 2: QSVLTQPPSVSGAPGQRVTISCTGSSSNIGADYDVHWYQQLPGTAPKLLIFGNNNRPSGVPDRFSGSKSGTSASLAITGLQAEDEADYYCQSFDKSLSGSFVFGTGTKVTGQ
Regarding B5, the Kd was 0.39 nM and 0.8 nM in assay [11]; 0.22 nM and 0.33 nM in [1]; 1.88 nM and 3.48 nM in assay [4]; 2.34 nM and 6.81 nM in [5]; 1.32 nM and 2.09 nM in assay [7]; 0.13 nM and 0.39 nM in assay [8]. Also, the binding result in assay [2] is “no binding (tested: 1350 nM)”.

B6: mAb TJ5-13 (antibody, V domains shown)
V domain 1: B5 V domain 1
V domain 2: B5 V domain 2
Consider B6, for which the Kd in the assay with A/Victoria/361/2011 HA came out at 0.59 nM; in assay [9], 1.71 nM; with A/Texas/50/2012 HA it was 0.42 nM; in the assay with A/Panama/2007/1999 HA it was 1.14 nM; in the assay with A/Perth/16/2009 HA it was 0.27 nM. The off-rate constant (koff) with A/Victoria/361/2011 HA amounted to 0.000128 s⁻¹; in [9], 0.000166 s⁻¹; with A/Texas/50/2012 HA it was 9.53e-05 s⁻¹; with A/Panama/2007/1999 HA, 0.000304 s⁻¹; with A/Perth/16/2009 HA, 6.03e-05 s⁻¹. Besides, the on-rate constant (kon) came out at 218000 M⁻¹ s⁻¹ with A/Victoria/361/2011 HA; 98600 M⁻¹ s⁻¹ in assay [9]; 257000 M⁻¹ s⁻¹ with A/Texas/50/2012 HA; 114000 M⁻¹ s⁻¹ with A/Panama/2007/1999 HA; 226000 M⁻¹ s⁻¹ with A/Perth/16/2009 HA. Further, the binding result in assay [10] was “no binding (tested: 100 nM rHA (exploratory assays))”.
